From patent publication US20250027068A1 (published 2025) come the findings set out here.

B1: PRT-443 (enzyme)
chain: MSQTEDSESLQRLRDIEDFQAEKKKQNVVYTKWLDGVDVKDHDFRKIVDGNIAYYATPLLNGRGFYDINKDFNRDSDKCAAAVAANMFHYWLDRNRDNVDRFLRQNPEKHGIIELPDEQLKLSDFLNTYESDDGYRDKSKLFDFISNNFNGPVWTDKLLDNYINGYAYNYKYGRTIEDPTKNTSKINFFKEVFNEKILTNNHSIRNQNEFSVLLSEALYTGKAIGLSYGPAGLRHSLGHIISVWGADLDADGNVVAIYVTDSDDKKLTIGDERVGLKRYKISTDDEGRLRLTAYEETHNTGGQIRGLWTLDTGKQAWADYFDKTEQTGTDQAEQ
B2: PRT-401 (enzyme)
chain: MVTSVWTKGVTPPADFTQGEDVFHAPYVANQGWYDITKEFNGKDDLLCGAATAGNMLHWWFDQNKEYIEAYLKKHPEKQKIMFGDQELLDVRKAINTKGSQKNSELFNYFRDKAFPNLSARRLGVMPDLVLDMFINGYYLNVTKTQTTDVNRTYQEKDKRGGIFDAVFTRGDQSKLLTSRHDFKEKGLKEISDLIKQELTEGKALGLSHTYANVRINHVINLWGADFDSDGNLKAIYVTDSDSNASIGMKKYFVGVNSAGKVAISAKEIKEDNIGAQVLGLFTLSTGQDIWNQTN
B3: PRT-410 (enzyme)
chain: MVTSVWTKGVTPPADFTQGEDVFHAPYVANQGWYDITKTFNGKDDLLCGAATAGNMLHWWFDQNKEYIEAYLKKHPEKQKIMFGDQELLDVRKAINTKGSQKNSELFNYFRDKAFPNLSARRLGVMPDLVLDMFINGYYLNVTKTQTTDVNRTYQEKDKRGGIFDAVFTRGDQSKLLTSRHDFKEKGLKEISDLIKQELTEGKALGLSHTYANVRINHVINLWGADFDSDGNLKAIYVTDSDTNASIGMKKYFVGVNSAGKVAISAKEIKEDNIGAQVLGLFTLSTGQDIWNQTN
B4: PRT-402 (enzyme)
chain: MVTSVWTKGVTPPADFTQGEDVFHAPYVANQGWYDITKTFNGKDDLLCGAATAGNMLHWWFDQNKEYIEAYLKKHPEKQKIMFGDQELLDVRKAINTKGSQKNSELFNYFRDKAFPNLSARRLGVMPDLVLDMFINGYYLNVTKTQTTDVNRTYQEKDKRGGIFDAVFTRGDQSKLLTSRHDFKEKGLKEISDLIKQELTEGKALGLSHTYANVRLNHVINLWGADFDSDGNLKAIYVTDSDSNASIGMKKYFVGVNSAGKVAISAKEIKEDNIGAQVLGLFTLSTGQDIWNQTN
B5: PRT-409 (enzyme)
chain: MVTSVWTKGVTPPADFTQGEDVFHAPYVANQGWYDITKTFNGKDDLLCGAATAGNMLHWWFDQNKEYIEAYLKKHPEKQKIMFGDQELLDVRKAINTKGSQKNSELFNYFRDKAFPNLSARRLGVMPDLVLDMFINGYYLNVTKTQTTDVNRTYQEKDKRGGIFDAVFTRGVQSKLLTSRHDFKEKGLKEISDLIKQELTEGKALGLSHTYANVRINHVINLWGADFDSDGNLKAIYVTDSDSNASIGMKKYFVGVNSAGKVAISAKEIKEDNIGAQVLGLFTLSTGQDIWNQTN
B6: PRT-417 (enzyme)
chain: MTITSVWTKGVTPPTPEDFRYNNEDVLHAPYVANQGWYDITKTFDGKDNLLCGAATAGNMLHWWFDQNKEEIERYLKKHPEKQKIIFNNQELFDVKAAIDTKDSQTNSKLFNYFRDKAFPNLSARQLGVMPDLVLDMFINGYYLNLGKTQSTDVNRPYQDKDKRGGIFDAVFTRGDQTTLLTARHDLKNKGLNEISDLIKQELTEGKALALSHTYANVRINHVINLWGADFDAEGELIAIYVTDSDANASIGMKKYFVGVNANGKVAISAKKIEGDNIGAQVLGLFTLSTGQDIWQKLS
B7: PRT-418 (enzyme)
chain: MTITSVWTKGVTPPTPEDFRYNNEDVLHAPYVANQGWYDITKTFDGKDNLLCGAATAGNMLHWWFDQNKEEIERYLKKHPEKQKIIFNNQELFDVKAAIDTKDSQTNSKLFNYFRDKAFPNLSARQLGVMPDLVLDMFINGYYLNLGKTQSTDVNRPYQDKDKRGGIFDAVFTRGDQTTLLTARHDLKNKGLNEISDLIKQELTEGKALALSHTYANVRINHVINLWGADFDAEGNLIAIYVTDSDANASIGMKKYAVGVNANGKVAISAKKIEGDNIGAQVLGLFTLSTGQDIWQKLS
B8: PRT-425 (enzyme)
chain: MTITSVWTKGVTPPTPEDFRYNNEDVLHAPYVANQGWYDITKTFDGKDNLLCGAATAGNMLHWWFDQNKEEIERYLKKHPEKQKIIFNNQELFDVKAAIDTKDSQTNSKLFNYFRDKAFPGLSARQLGVMPDLVLDMFINGYYLNLGKTQSTDVNRPYQDKDKRGGIFDAVFTRGDQTTLLTARHDLKNKGLNEISDLIKQELTEGKALALSHTYANVRINHVINLWGADFDAEGNLIAIYVTDSDANASIGMKKYFVGVNANGKVAISAKKIEGDNIGAQVLGLFTLSTGQDIWQKLS
B9: PRT-385 (enzyme)
chain: MVTSVWTKGVTPPTNFTYGEDVLHAPYVANQGWYDITKTFNGKDDLLCGAATAGNMLHWWFDQNKEQIENYLKKHPEKQKINFNGEQMFDVKEAIDTKDSQLDSKLFEYFKEKAFPYLSTKHLGVFPDHVIDMFINGYRLSLTNHGPTPVKRGSKDPRGGIFDAVFTRGDQSKLLTNRHDFKEKTLKEISDLIKQELTEGKALGISHTYANGRINHVINLWGADFDAEGNLEAIYVTDSDSNASIGMKKYFVGVNSNGKVAISAKEIEEDNIGAQVLGLFTLSTGQDIWNQTN
B10: PRT-378 (enzyme)
chain: MVTSVWTKGVTPPTNFTYGEDVLHAPYVANQGWYDITKTFNGKDDLLCGAATAGNMLHWWFDQNKEQIENYLKKHPEKQKINFNGEQMFDVKEAIDTKDSQLDSKLFEYFKEKAFPSLSTKHLGVFPDHVIDMFINGYRLSLTNHGPTPVKRGSKDPRGGIFDAVFTRGDQSKLLTNRHDFKEKTLKEISDLIKQELTEGKALGISHTYANVRINHVINLWGADFDAEGNLEAIYVTDSDSNASIGMKKYFVGVNSNGKVAISAKEIEEDNIGAQVLGLFTLSTGQDIWNQTN
B11: PRT-393 (enzyme)
chain: MVTSVWTKGVTPPTNFTYGEDVLHAPYVANQGWYDITKTFNGKDDLLCGAATAGNMLHWWFDQNKEQIENYLKKHPEKQKINFNGEQMFDVKEAIDTKDSQLDSKLFEYFKEKAFPYLSTKHLGVFPDHVIDMFINGYRLSLTNHGPTPVKRGSKDPRGGIFDAVFTRGDQSKLLTNRHDFKEKTLKEISDLIKQELTEGKALGISHTYANVRINHVINLWGADFDAEGNLEAIYVTDSDTNASIGMKKYFVGVNSNGKVAISAKEIEEDNIGAQVLGLFTLSTGQDIWNQTN
B12: PRT-386 (enzyme)
chain: MVTSVWTKGVTPPTNFTYGEDVLHAPYVANQGWYDITKTFNGKDDLLCGAATAGNMLHWWFDQNKEQIENYLKKHPEKQKINFNGEQMFDVKEAIDTKDSQLDSKLFEYFKEKAFPYLSTKHLGVFPDHVIDMFINGYRLSLTNHGPTPVKRGSKDPRGGIFDAVFTRGDQSKLLTNRHDFKEKTLKEISDLIKQELTEGKALGISHTYANVRINHVINLWGADFDAEGNLEAIAVTDSDSNASIGMKKYFVGVNSNGKVAISAKEIEEDNIGAQVLGLFTLSTGQDIWNQTN
B13: PRT-394 (enzyme)
chain: MVTSVWTKGVTPPTNFTYGEDVLHAPYVANQGWYDITKTFNGKDDLLCGAATAGNMLHWWFDQNKEQIENYLKKHPEKQKINFNGEQMFDVKEAIDTKDSQLDSKLFEYFKEKAFPYLSTKHLGVFPDHVIDMFINGYRLSLTNHGPTPVKRGSKDPRGGIFDAVFTRGDQSKLLTNRHDFKEKTLKEISDLIKQELTEGKALGISHTYANVRINHVINLWGADFDAEGNLEAIYVTDSDSEASIGMKKYFVGVNSNGKVAISAKEIEEDNIGAQVLGLFTLSTGQDIWNQTN
Also: test concentration or dose not given here.

For the experiment, the target named is pooled human IgG (human IgG1, 2, 3 and 4) (human). The experiment is described as follows: cell-based or functional assay.
B1: the “Enzyme Activity Endpoint Assay: Fab′2” value is 17 ng/µL, the “Enzyme Activity Endpoint Assay: Fc” value stood at 0 ng/µL, the “Enzyme Activity Endpoint Assay: IgG” value stood at 431 ng/µL and the “Enzyme Activity Endpoint Assay: scIgG” value was determined as 535 ng/µL.
As to B2, the “Enzyme Activity Endpoint Assay: Fab′2” value was 624 ng/µL, the “Enzyme Activity Endpoint Assay: Fc” value turned out to be 329 ng/µL, the “Enzyme Activity Endpoint Assay: IgG” value is 128 ng/µL and the “Enzyme Activity Endpoint Assay: scIgG” value was 0 ng/µL.
The corresponding values for B3 are 567 ng/µL, 297 ng/µL, 206 ng/µL and 0 ng/µL.
The corresponding values for B4 are 530 ng/µL, 342 ng/µL, 0 ng/µL and 188 ng/µL.
B5: the “Enzyme Activity Endpoint Assay: Fab′2” value stood at 658 ng/µL, the “Enzyme Activity Endpoint Assay: Fc” value amounted to 313 ng/µL, the “Enzyme Activity Endpoint Assay: IgG” value was 0 ng/µL and the “Enzyme Activity Endpoint Assay: scIgG” value was 0 ng/µL.
As to B6, the “Enzyme Activity Endpoint Assay: Fab′2” value was found to be 193 ng/µL, the “Enzyme Activity Endpoint Assay: Fc” value was 27 ng/µL, the “Enzyme Activity Endpoint Assay: IgG” value was 324 ng/µL and the “Enzyme Activity Endpoint Assay: scIgG” value amounted to 0 ng/µL.
In the case of B7, the “Enzyme Activity Endpoint Assay: Fab′2” value came out at 382 ng/µL, the “Enzyme Activity Endpoint Assay: Fc” value is 283 ng/µL, the “Enzyme Activity Endpoint Assay: IgG” value is 288 ng/µL and the “Enzyme Activity Endpoint Assay: scIgG” value was 149 ng/µL.
The like results for B8 were, in that order, 568 ng/µL, 27 ng/µL, 169 ng/µL and 0 ng/µL.
The like results for B9 were, in that order, 494 ng/µL, 265 ng/µL, 103 ng/µL and 56 ng/µL.
The corresponding values for B10 are 477 ng/µL, 319 ng/µL, 0 ng/µL and 207 ng/µL.
As to B11, the “Enzyme Activity Endpoint Assay: Fab′2” value turned out to be 663 ng/µL, the “Enzyme Activity Endpoint Assay: Fc” value was determined as 317 ng/µL, the “Enzyme Activity Endpoint Assay: IgG” value was 0 ng/µL and the “Enzyme Activity Endpoint Assay: scIgG” value worked out at 0 ng/µL.
B12: the “Enzyme Activity Endpoint Assay: Fab′2” value worked out at 519 ng/µL, the “Enzyme Activity Endpoint Assay: Fc” value stood at 337 ng/µL, the “Enzyme Activity Endpoint Assay: IgG” value came out at 0 ng/µL and the “Enzyme Activity Endpoint Assay: scIgG” value was found to be 240 ng/µL.
The corresponding values for B13 are 482 ng/µL, 323 ng/µL, 0 ng/µL and 209 ng/µL.
